Drawing on paper PMC2975869, this text covers Total Binding (TB), cells co-transfected with EBP50 and Total Binding (TB), cells co-transfected with pcDNA3 for 1 substance.

The target of the experiment is HA-tagged M593A-PTH1R (UniProt Q03431). The experiment is described as follows: radioligand binding.

In the case of [125I]-PTH(1-34)NH2 (peptide), the Total Binding (TB), cells co-transfected with EBP50 was determined as 1290 and the Total Binding (TB), cells co-transfected with pcDNA3 is 1180.
